According to US20140087995A1 (published 2014):
Numbered stars: 1 amine (or outer) side, 2 acyl side, 3 side chain; on linkers, the order of the positions; unused ones are H or OH. Bridge positions count the residues as written; N and C are the ends. Side chains are listed from the residue outwards. Ends that are not written are not given here. * marks the point of attachment. C20 diacid = O=C(O)CCCCCCCCCCCCCCCCCCC(=O)*; γGlu = O=C(O)[C@H](CCC(=O)[*:2])N[*:1]; AEEA = NCCOCCOCC(=O)O

Assays:
[1] = biological target: T1, human calcitonin receptor (human, UniProt P30988 25-474); assay: SPA competition vs 125I-calcitonin, membranes of BHK cells with human calcitonin receptor (Assay VII)
T1 construct: whole, on cells; Assayed as cell membranes of BHK tk'ts 13 cells stably transfected with the human calcitonin receptor (Assay VII); also called hCTR; hCT
T1 sequence (looked up): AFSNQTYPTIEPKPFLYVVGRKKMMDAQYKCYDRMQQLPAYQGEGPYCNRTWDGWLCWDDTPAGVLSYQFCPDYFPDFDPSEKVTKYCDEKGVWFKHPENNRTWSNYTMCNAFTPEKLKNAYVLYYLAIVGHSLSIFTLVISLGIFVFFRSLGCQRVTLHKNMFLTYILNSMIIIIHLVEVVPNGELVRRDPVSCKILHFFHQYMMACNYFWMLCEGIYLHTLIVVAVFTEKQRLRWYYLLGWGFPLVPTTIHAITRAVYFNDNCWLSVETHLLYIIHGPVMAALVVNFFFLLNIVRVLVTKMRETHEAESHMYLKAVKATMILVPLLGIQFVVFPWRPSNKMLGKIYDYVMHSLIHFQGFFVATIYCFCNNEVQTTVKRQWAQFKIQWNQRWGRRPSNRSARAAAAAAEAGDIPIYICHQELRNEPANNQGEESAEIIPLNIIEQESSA
Method in brief: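 BHK hCTR membranes 35 ng/μL + SPA beads 0.05 mg/well; buffer 50 mM Hepes pH 7.4, 1 mM CaCl2, 5 mM MgCl₂, 0.1% OA, 0.02% Tween20. 120 min, 25° C., shaking. Scintillation count; IC50 by one-site binding competition.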

[2] = biological target: T1, human calcitonin receptor; assay: IC50 at hCTR divided by IC50 at hAmylin-R (SPA competition assays V and VII)
Method in brief: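 Scintillation proximity competition binding on cell membranes at 35 ng/μL with SPA beads, in 50 mM Hepes pH 7.4, 1 mM CaCl2, 5 mM MgCl₂, 0.1% OA, 0.02% Tween20. Incubated 120 min at 25° C with shaking. IC₅₀ from one-site competition fit.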

Binder | IC50 [1] [nM] | Ratio hCT/hAmylin binding [2]
K([AEEA-γGlu-C20 diacid])CNTATCATQRLANFLRHSSPNFGAIPSPTPVGSNTY-NH2 (disulfide 2-7; N-terminus assumed; SMILES CC[C@H](C)[C@H](NC(=O)[C@H](C)NC(=O)CNC(=O)[C@H](Cc1ccccc1)NC(=O)[C@H](CC(N)=O)NC(=O)[C@@H]1CCCN1C(=O)[C@H](CO)NC(=O)[C@H](CO)NC(=O)[C@H](Cc1c[nH]cn1)NC(=O)[C@H](CCCNC(=N)N)NC(=O)[C@H](CC(C)C)NC(=O)[C@H](Cc1ccccc1)NC(=O)[C@H](CC(N)=O)NC(=O)[C@H](C)NC(=O)[C@H](CC(C)C)NC(=O)[C@H](CCCNC(=N)N)NC(=O)[C@H](CCC(N)=O)NC(=O)[C@@H](NC(=O)[C@H](C)NC(=O)[C@@H]1CSSC[C@H](NC(=O)[C@@H](N)CCCCNC(=O)COCCOCCNC(=O)CC[C@H](NC(=O)CCCCCCCCCCCCCCCCCCC(=O)O)C(=O)O)C(=O)N[C@@H](CC(N)=O)C(=O)N[C@@H]([C@@H](C)O)C(=O)N[C@@H](C)C(=O)N[C@@H]([C@@H](C)O)C(=O)N1)[C@@H](C)O)C(=O)N1CCC[C@H]1C(=O)N[C@@H](CO)C(=O)N1CCC[C@H]1C(=O)N[C@H](C(=O)N1CCC[C@H]1C(=O)N[C@H](C(=O)NCC(=O)N[C@@H](CO)C(=O)N[C@@H](CC(N)=O)C(=O)N[C@H](C(=O)N[C@@H](Cc1ccc(O)cc1)C(N)=O)[C@@H](C)O)C(C)C)[C@@H](C)O, also called compound 54) | 4.38 | 146
K([AEEA-γGlu-C20 diacid])CNTATCATQRLANFLRHSSPNFGAIPSPTNVGPNTY-NH2 (disulfide 2-7; N-terminus assumed; SMILES CC[C@H](C)[C@H](NC(=O)[C@H](C)NC(=O)CNC(=O)[C@H](Cc1ccccc1)NC(=O)[C@H](CC(N)=O)NC(=O)[C@@H]1CCCN1C(=O)[C@H](CO)NC(=O)[C@H](CO)NC(=O)[C@H](Cc1c[nH]cn1)NC(=O)[C@H](CCCNC(=N)N)NC(=O)[C@H](CC(C)C)NC(=O)[C@H](Cc1ccccc1)NC(=O)[C@H](CC(N)=O)NC(=O)[C@H](C)NC(=O)[C@H](CC(C)C)NC(=O)[C@H](CCCNC(=N)N)NC(=O)[C@H](CCC(N)=O)NC(=O)[C@@H](NC(=O)[C@H](C)NC(=O)[C@@H]1CSSC[C@H](NC(=O)[C@@H](N)CCCCNC(=O)COCCOCCNC(=O)CC[C@H](NC(=O)CCCCCCCCCCCCCCCCCCC(=O)O)C(=O)O)C(=O)N[C@@H](CC(N)=O)C(=O)N[C@@H]([C@@H](C)O)C(=O)N[C@@H](C)C(=O)N[C@@H]([C@@H](C)O)C(=O)N1)[C@@H](C)O)C(=O)N1CCC[C@H]1C(=O)N[C@@H](CO)C(=O)N1CCC[C@H]1C(=O)N[C@H](C(=O)N[C@@H](CC(N)=O)C(=O)N[C@H](C(=O)NCC(=O)N1CCC[C@H]1C(=O)N[C@@H](CC(N)=O)C(=O)N[C@H](C(=O)N[C@@H](Cc1ccc(O)cc1)C(N)=O)[C@@H](C)O)C(C)C)[C@@H](C)O, also called compound 56) | 2.09 | 42.6
K([AEEA-γGlu-C20 diacid])CNTATCATQRLANFLRHSSPNFGAIPSSTPVGSHTY-NH2 (disulfide 2-7; N-terminus assumed; SMILES CC[C@H](C)[C@H](NC(=O)[C@H](C)NC(=O)CNC(=O)[C@H](Cc1ccccc1)NC(=O)[C@H](CC(N)=O)NC(=O)[C@@H]1CCCN1C(=O)[C@H](CO)NC(=O)[C@H](CO)NC(=O)[C@H](Cc1c[nH]cn1)NC(=O)[C@H](CCCNC(=N)N)NC(=O)[C@H](CC(C)C)NC(=O)[C@H](Cc1ccccc1)NC(=O)[C@H](CC(N)=O)NC(=O)[C@H](C)NC(=O)[C@H](CC(C)C)NC(=O)[C@H](CCCNC(=N)N)NC(=O)[C@H](CCC(N)=O)NC(=O)[C@@H](NC(=O)[C@H](C)NC(=O)[C@@H]1CSSC[C@H](NC(=O)[C@@H](N)CCCCNC(=O)COCCOCCNC(=O)CC[C@H](NC(=O)CCCCCCCCCCCCCCCCCCC(=O)O)C(=O)O)C(=O)N[C@@H](CC(N)=O)C(=O)N[C@@H]([C@@H](C)O)C(=O)N[C@@H](C)C(=O)N[C@@H]([C@@H](C)O)C(=O)N1)[C@@H](C)O)C(=O)N1CCC[C@H]1C(=O)N[C@@H](CO)C(=O)N[C@@H](CO)C(=O)N[C@H](C(=O)N1CCC[C@H]1C(=O)N[C@H](C(=O)NCC(=O)N[C@@H](CO)C(=O)N[C@@H](Cc1c[nH]cn1)C(=O)N[C@H](C(=O)N[C@@H](Cc1ccc(O)cc1)C(N)=O)[C@@H](C)O)C(C)C)[C@@H](C)O, also called compound 57) | 15.3 | 133
K([AEEA-γGlu-C20 diacid])CNTATCATQRLANFLRHSSPNFGAIPSSTNVGPHTY-NH2 (disulfide 2-7; N-terminus assumed; SMILES CC[C@H](C)[C@H](NC(=O)[C@H](C)NC(=O)CNC(=O)[C@H](Cc1ccccc1)NC(=O)[C@H](CC(N)=O)NC(=O)[C@@H]1CCCN1C(=O)[C@H](CO)NC(=O)[C@H](CO)NC(=O)[C@H](Cc1c[nH]cn1)NC(=O)[C@H](CCCNC(=N)N)NC(=O)[C@H](CC(C)C)NC(=O)[C@H](Cc1ccccc1)NC(=O)[C@H](CC(N)=O)NC(=O)[C@H](C)NC(=O)[C@H](CC(C)C)NC(=O)[C@H](CCCNC(=N)N)NC(=O)[C@H](CCC(N)=O)NC(=O)[C@@H](NC(=O)[C@H](C)NC(=O)[C@@H]1CSSC[C@H](NC(=O)[C@@H](N)CCCCNC(=O)COCCOCCNC(=O)CC[C@H](NC(=O)CCCCCCCCCCCCCCCCCCC(=O)O)C(=O)O)C(=O)N[C@@H](CC(N)=O)C(=O)N[C@@H]([C@@H](C)O)C(=O)N[C@@H](C)C(=O)N[C@@H]([C@@H](C)O)C(=O)N1)[C@@H](C)O)C(=O)N1CCC[C@H]1C(=O)N[C@@H](CO)C(=O)N[C@@H](CO)C(=O)N[C@H](C(=O)N[C@@H](CC(N)=O)C(=O)N[C@H](C(=O)NCC(=O)N1CCC[C@H]1C(=O)N[C@@H](Cc1c[nH]cn1)C(=O)N[C@H](C(=O)N[C@@H](Cc1ccc(O)cc1)C(N)=O)[C@@H](C)O)C(C)C)[C@@H](C)O, also called compound 58) | 9.63 | 109
K([AEEA-γGlu-C20 diacid])CNTATCATQRLANFLRHSSPNFGAIPSSTNVGPNTY-NH2 (disulfide 2-7; N-terminus assumed; SMILES CC[C@H](C)[C@H](NC(=O)[C@H](C)NC(=O)CNC(=O)[C@H](Cc1ccccc1)NC(=O)[C@H](CC(N)=O)NC(=O)[C@@H]1CCCN1C(=O)[C@H](CO)NC(=O)[C@H](CO)NC(=O)[C@H](Cc1c[nH]cn1)NC(=O)[C@H](CCCNC(=N)N)NC(=O)[C@H](CC(C)C)NC(=O)[C@H](Cc1ccccc1)NC(=O)[C@H](CC(N)=O)NC(=O)[C@H](C)NC(=O)[C@H](CC(C)C)NC(=O)[C@H](CCCNC(=N)N)NC(=O)[C@H](CCC(N)=O)NC(=O)[C@@H](NC(=O)[C@H](C)NC(=O)[C@@H]1CSSC[C@H](NC(=O)[C@@H](N)CCCCNC(=O)COCCOCCNC(=O)CC[C@H](NC(=O)CCCCCCCCCCCCCCCCCCC(=O)O)C(=O)O)C(=O)N[C@@H](CC(N)=O)C(=O)N[C@@H]([C@@H](C)O)C(=O)N[C@@H](C)C(=O)N[C@@H]([C@@H](C)O)C(=O)N1)[C@@H](C)O)C(=O)N1CCC[C@H]1C(=O)N[C@@H](CO)C(=O)N[C@@H](CO)C(=O)N[C@H](C(=O)N[C@@H](CC(N)=O)C(=O)N[C@H](C(=O)NCC(=O)N1CCC[C@H]1C(=O)N[C@@H](CC(N)=O)C(=O)N[C@H](C(=O)N[C@@H](Cc1ccc(O)cc1)C(N)=O)[C@@H](C)O)C(C)C)[C@@H](C)O, also called compound 50) | 1.38 | 36
K([AEEA-γGlu-C20 diacid])CNTATCATQRLAGFLRHSSPNFGAIPSSTPVGSNTY-NH2 (disulfide 2-7; N-terminus assumed; SMILES CC[C@H](C)[C@H](NC(=O)[C@H](C)NC(=O)CNC(=O)[C@H](Cc1ccccc1)NC(=O)[C@H](CC(N)=O)NC(=O)[C@@H]1CCCN1C(=O)[C@H](CO)NC(=O)[C@H](CO)NC(=O)[C@H](Cc1c[nH]cn1)NC(=O)[C@H](CCCNC(=N)N)NC(=O)[C@H](CC(C)C)NC(=O)[C@H](Cc1ccccc1)NC(=O)CNC(=O)[C@H](C)NC(=O)[C@H](CC(C)C)NC(=O)[C@H](CCCNC(=N)N)NC(=O)[C@H](CCC(N)=O)NC(=O)[C@@H](NC(=O)[C@H](C)NC(=O)[C@@H]1CSSC[C@H](NC(=O)[C@@H](N)CCCCNC(=O)COCCOCCNC(=O)CC[C@H](NC(=O)CCCCCCCCCCCCCCCCCCC(=O)O)C(=O)O)C(=O)N[C@@H](CC(N)=O)C(=O)N[C@@H]([C@@H](C)O)C(=O)N[C@@H](C)C(=O)N[C@@H]([C@@H](C)O)C(=O)N1)[C@@H](C)O)C(=O)N1CCC[C@H]1C(=O)N[C@@H](CO)C(=O)N[C@@H](CO)C(=O)N[C@H](C(=O)N1CCC[C@H]1C(=O)N[C@H](C(=O)NCC(=O)N[C@@H](CO)C(=O)N[C@@H](CC(N)=O)C(=O)N[C@H](C(=O)N[C@@H](Cc1ccc(O)cc1)C(N)=O)[C@@H](C)O)C(C)C)[C@@H](C)O, also called compound 71) | 1.53 | 32
